Results on twelve molecules are retold here after patent US8795990B2, “Recombinant enzyme with altered feedback sensitivity” (Metabolic Explorer, priority 2004, dated 2014).

For series [1], the system named is E. coli. Particulars: growth rate of E. coli; cited from earlier work.
The target of series [2] is homoserine transsuccinylase enzyme MetA (Escherichia coli, UniProt P07623). Particulars: in words; cited from earlier work.
Series [3] has as its system S-adenosylmethionine synthetase. Kind of series: S-adenosylmethionine synthetase (MAT) activity in vitro in crude extracts, FIA-MS/MS. Type of series: biochemical, E. coli. Particulars: 10 mM methionine, 10 mM ATP, 37° C., 30 minutes.
The subject of series [4] is homoserine transsuccinylase. The series can be described thus: Homoserine transsuccinylase activity in vitro in crude extracts, succinylhomoserine quantified by GC-MS, with or without methionine and S-adenosylmethionine. As to conditions: for MetA activity of clones in pTRC99A: alleles cloned in pTRC99A with an alanine between amino acid 1M and 2P.
Experimental: The activity of homoserine transsuccinylase was determined in vitro E. coli strains carrying either wild-type or mutant-enzymes were cultured in rich medium with 2.5 g/l glucose and harvested at late log phase. Cells were resuspended in cold potassium phosphate buffer and sonicated on ice (Branson sonifier, 70W). After centrifugation, proteins contained in the supernatants were quantified (Bradford, 1976).
Ten μl of the extracts were incubated for 30 minutes at 25° C. with 30 mM homoserine and 4 mM succinyl-CoA. Methionine and/or S-adenosylmethionine were added as indicated. The succinylhomoserine produced by homoserine transsuccinylase enzymes was quantified by GC-MS after derivatization with tert-butyldimethylsilyltrifluoroacetamide (TBDMSTFA). L-Serine[1-13C] was included as an internal standard.
[5] abbreviates: Methionine 0 mM, S-adenosylmethionine 0 mM, rich medium extracts.
Setting [6] is: Methionine 0 mM, S-adenosylmethionine 0.1 mM.
[7] abbreviates: Methionine 0 mM, S-adenosylmethionine 1 mM.
The mark [8] stands for this setting: Methionine 10 mM, S-adenosylmethionine 0 mM.
Where [9] appears, read: Methionine 10 mM, S-adenosylmethionine 0.1 mM.
The mark [10] stands for this setting: Methionine 10 mM, S-adenosylmethionine 1 mM.

Positions count from the first letter of the chain named. Numbers in names are those of the source. ≈ marks a conversion by molar mass, not a printed value.

Sequence of homoserine transsuccinylase enzyme MetA (P07623 whole entry): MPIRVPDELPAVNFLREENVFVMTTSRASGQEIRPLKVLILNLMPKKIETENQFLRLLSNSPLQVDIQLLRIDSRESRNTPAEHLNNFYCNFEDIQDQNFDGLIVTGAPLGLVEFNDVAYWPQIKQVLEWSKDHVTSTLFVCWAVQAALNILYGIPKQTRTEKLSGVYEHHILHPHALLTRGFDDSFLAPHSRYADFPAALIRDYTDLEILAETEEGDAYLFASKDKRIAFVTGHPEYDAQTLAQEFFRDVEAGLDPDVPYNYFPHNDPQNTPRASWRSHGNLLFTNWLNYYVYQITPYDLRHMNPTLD

On to `CSCC[C@](C)(N)C(=O)O` [α-methylmethionine], for which, in series [1], the “minimal concentration for a maximal inhibition” value is 5 µg/mL and the minimal inhibitory concentration was 1 µg/mL (≈ 6.13 µM). For the same molecule, the “inhibition of homoserine transsuccinylase enzyme MetA” value in series [2] is given as “potent inhibitor”.

B1: MetK* T227I (protein, UniProt P0A817 2-384, looked up, variant T227I)
S-adenosylmethionine synthase: AKHLFTSESVSEGHPDKIADQISDAVLDAILEQDPKARVACETYVKTGMVLVGGEITTSAWVDIEEITRNTVREIGYVHSDMGFDANSCAVLSAIGKQSPDINQGVDRADPLEQGAGDQGLMFGYATNETDVLMPAPITYAHRLVQRQAEVRKNGTLPWLRPDAKSQVTFQYDDGKIVGIDAVVLSTQHSEEIDQKSLQEAVMEEIIKPILPAEWLTSATKFFINPIGRFVIGGPMGDCGLTGRKIIVDTYGGMARHGGGAFSGKDPSKVDRSAAYAARYVAKNIVAAGLADRCEIQVSYAIGVAEPTSIMVETFGTEKVPSEQLTLLVREFFDLRPYGLIQMLDLLHPIYKETAAYGHFGREHFPWEKTDKAQLLRDAAGLK
For the molecule B1, the “MAT (S-adenosylmethionine synthetase activity)” value (“MAT” below) in series [3] is 4.9 mUI/mg prot.

B2: MetK* S59N + G105S (protein, UniProt P0A817 2-384, looked up, variant S59N G105S)
S-adenosylmethionine synthase: B1 S-adenosylmethionine synthase with S59N, G105S, I227T
As for B2, the “MAT” value in series [3] turned out to be 2.9 mUI/mg prot.

B3: MetK* R161C + P235S (protein, UniProt P0A817 2-384, looked up, variant R161C P235S)
S-adenosylmethionine synthase: B1 S-adenosylmethionine synthase with R161C, I227T, P235S
Turning to B3, in series [3], the “MAT” value was found to be 0.7 mUI/mg prot.

B4: WT: wild-type E. coli S-adenosylmethionine synthetase (MetK) (protein, UniProt P0A817 2-384, looked up)
S-adenosylmethionine synthase: B1 S-adenosylmethionine synthase with I227T
Take B4: the “MAT” value in series [3] came to 7.5 mUI/mg prot.

B5: MetK* H189Y (protein, UniProt P0A817 2-384, looked up, variant H189Y)
S-adenosylmethionine synthase: B1 S-adenosylmethionine synthase with H189Y, I227T
As to B5, the “MAT” value in series [3] was 0.6 mUI/mg prot.

B6: MetK* H143T (protein, UniProt P0A817 2-384, looked up, variant H143T)
S-adenosylmethionine synthase: B1 S-adenosylmethionine synthase with H142T, I227T
For the molecule B6, the “MAT” value in series [3] stood at 2.5 mUI/mg prot.

B7: MetK* G105S (protein, UniProt P0A817 2-384, looked up, variant G105S)
S-adenosylmethionine synthase: B1 S-adenosylmethionine synthase with G105S, I227T
For B7, in series [3], the “MAT” value is on record as 2.8 mUI/mg prot.

B8: MetK* G115S (protein, UniProt P0A817 2-384, looked up, variant G115S)
S-adenosylmethionine synthase: B1 S-adenosylmethionine synthase with G115S, I227T
As to B8, the “MAT” value in series [3] came out at 0.4 mUI/mg prot.

B9: MetK* P137L (protein, UniProt P0A817 2-384, looked up, variant P137L)
S-adenosylmethionine synthase: B1 S-adenosylmethionine synthase with P137L, I227T
B9: in series [3], the “MAT” value came out at 1.2 mUI/mg prot.

B10: metA: wild-type E. coli homoserine transsuccinylase (metA gene, strain MG1655) (protein, UniProt P07623 2-309, looked up)
Homoserine …: PIRVPDELPAVNFLREENVFVMTTSRASGQEIRPLKVLILNLMPKKIETENQFLRLLSNSPLQVDIQLLRIDSRESRNTPAEHLNNFYCNFEDIQDQNFDGLIVTGAPLGLVEFNDVAYWPQIKQVLEWSKDHVTSTLFVCWAVQAALNILYGIPKQTRTEKLSGVYEHHILHPHALLTRGFDDSFLAPHSRYADFPAALIRDYTDLEILAETEEGDAYLFASKDKRIAFVTGHPEYDAQTLAQEFFRDVEAGLDPDVPYNYFPHNDPQNTPRASWRSHGNLLFTNWLNYYVYQITPYDLRHMNPTLD
Regarding B10, the Specific activity in series [4] (setting [5]) stood at 36.7 mUI/mg proteins; in series [4] (setting [6]), 27.9 mUI/mg proteins; in series [4] (setting [7]) it was 4.7 mUI/mg proteins; in series [4] (setting [8]), 0.4 mUI/mg proteins; in series [4] (setting [9]), 0.2 mUI/mg proteins; in series [4] (setting [10]) it was 0.1 mUI/mg proteins. The “MetA activity of clones in pTRC99A” value in series [4] is “vary low”.

B11: metA*11: mutant homoserine transsuccinylase allele, CAG exchanged for GAG, Q replaced by E (Q64E) (protein, UniProt P07623 2-309, looked up, variant Q64E)
Homoserine …: B10 Homoserine … with Q63E
As to B11, the Specific activity in series [4] (setting [5]) came to 19.2 mUI/mg proteins; in series [4] (setting [6]), 21.7 mUI/mg proteins; in series [4] (setting [7]) it was 18.5 mUI/mg proteins; in series [4] (setting [8]) it was 18.7 mUI/mg proteins; in series [4] (setting [9]), 16.9 mUI/mg proteins; in series [4] (setting [10]) it was 2.7 mUI/mg proteins. Also, in series [4], the “MetA activity of clones in pTRC99A” value is “vary low”.
